Results reported in patent US7109317.

Biological target: endogenous calcineurin (human) (UniProt P63098)
Test: cell-based or functional assay

endogenous calcineurin (human), sequence (P63098 2-170): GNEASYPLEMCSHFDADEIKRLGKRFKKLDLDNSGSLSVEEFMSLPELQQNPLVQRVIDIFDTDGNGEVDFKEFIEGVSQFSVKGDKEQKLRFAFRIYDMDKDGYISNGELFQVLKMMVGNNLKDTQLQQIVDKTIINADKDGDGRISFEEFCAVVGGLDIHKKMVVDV
FKBP12, sequence (P62942 2-108 limits assumed): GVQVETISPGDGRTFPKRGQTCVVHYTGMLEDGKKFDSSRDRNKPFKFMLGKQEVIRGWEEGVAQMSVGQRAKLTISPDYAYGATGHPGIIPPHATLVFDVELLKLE

FKBP12 (from UniProt P62942 2-108)
suppression of PMA/ionomycin-induced activation of an NFAT-SEAP reporter, C40-phenyl-FK506 against FK506: 30 fold
